The values that follow come from patent publication US20020107196A1.

The target of this test is human CXCR4 receptor (human). Put plainly: cell-based or functional assay.

Sequence of stromal cell derived factor-1α (SDF-1α) (ligand) (chain): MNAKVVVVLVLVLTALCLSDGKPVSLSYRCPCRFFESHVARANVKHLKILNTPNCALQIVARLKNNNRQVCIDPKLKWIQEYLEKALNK

As to “stromal cell derived factor-1α (SDF-1α) (ligand)”, the EC50 of HUVEC migration (Transwell chemotaxis) lay within 0.01 to 0.02 µM, the elevation of [Ca+2]i in HUVEC (fura-2 fluorescence); concentration of maximal response was 100 nM and the percent migration of input EC (Transwell chemotaxis) stood at 40%.
